Experimental data taken from US20210330762A1.

Assays:
Test in all cases: cell-based or functional assay
[1] = molecular target: µPlm mutant F587A (human) (UniProt P00747)
[2] = molecular target: µPlm mutant F587I (human) (UniProt P00747)
[3] = molecular target: µPlm mutant F587R (human) (UniProt P00747)
[4] = molecular target: wild-type microplasmin (WT µPlm), refolded from E. coli µPlg and activated with urokinase (human) (UniProt P00747)
[5] = molecular target: µPlm mutant F587D (human) (UniProt P00747)
[6] = molecular target: µPlm mutant F587N (human) (UniProt P00747)
[7] = molecular target: µPlm mutant F587Q (human) (UniProt P00747)
[8] = molecular target: µPlm mutant F587V (human) (UniProt P00747)
[9] = molecular target: µPlm mutant F587M (human) (UniProt P00747)

IC50 (nM) of α2-AP inhibition of µPlm amidolytic activity (S-2403) [1]: 150 nM
IC50 Fold Increase [1]: 4 fold
activity remaining at 2 times concentration of α2-AP (% activity remaining) [1]: 50
IC50 (nM) of α2-AP inhibition of µPlm amidolytic activity (S-2403) [2]: 46.4 nM
IC50 Fold Increase [2]: 1.2 fold
IC50 (nM) of α2-AP inhibition of µPlm amidolytic activity (S-2403) [3]: 164 nM
IC50 Fold Increase [3]: 4.3 fold
IC50 (nM) of α2-AP inhibition of µPlm amidolytic activity (S-2403) [4]: 37.9 nM
IC50 Fold Increase [4]: 1 fold
IC50 (nM) of α2-AP inhibition of µPlm amidolytic activity (S-2403) [5]: 106 nM
IC50 Fold Increase [5]: 2.8 fold
IC50 (nM) of α2-AP inhibition of µPlm amidolytic activity (S-2403) [6]: 105 nM
IC50 Fold Increase [6]: 2.8 fold
IC50 (nM) of α2-AP inhibition of µPlm amidolytic activity (S-2403) [7]: 63.2 nM
IC50 Fold Increase [7]: 1.7 fold
IC50 (nM) of α2-AP inhibition of µPlm amidolytic activity (S-2403) [8]: 65.2 nM
IC50 Fold Increase [8]: 1.7 fold
IC50 (nM) of α2-AP inhibition of µPlm amidolytic activity (S-2403) [9]: 77.6 nM
IC50 Fold Increase [9]: 2 fold
B1: α2-antiplasmin (α2-AP), purified from human serum (protein)
chain: NQEQVSPLTLLKLGNQEPGGQTALKSPPGVCSRDPTPEQTHRLARAMMAFTADLFSLVAQTSTCPNLILSPLSVALALSHLALGAQNHTLQRLQQVLHAGSGPCLPHLLSRLCQDLGPGAFRLAARMYLQKGFPIKEDFLEQSEQLFGAKPVSLTGKQEDDLANINQWVKEATEGKIQEFLSGLPEDTVLLLLNAIHFQGFWRNKFDPSLTQRDSFHLDEQFTVPVEMMQARTYPLRWFLLEQPEIQVAHFPFKNNMSFVVLVPTHFEWNVSQVLANLSWDTLHPPLVWERPTKVRLPKLYLKHQMDLVATLSQLGLQELFQAPDLRGISEQSLVVSGVQHQSTLELSEVGVEAAAATSIAMSRMSLSSFSVNRPFLFFIFEDTTGLPLFVGSVRNPNPSAPRELKEQQDSPGNKDFLQSLKGFPRGDKLFGPDLKLVPPMEEDYPQFGSPK
